We go through one molecule from article PMC8939767 (Science Translational Medicine, 2022).

The assay concerns the target SARS-CoV-2 spike S2P (soluble S trimer with two proline mutations) (SARS-CoV-2, Wuhan reference, UniProt P0DTC2, stabilised). Description: BLI; […] (AHC) sensors, […], association 120 s, […]. The conditions noted are these: both partners purified. (In BLI a coated tip is dipped into the sample, and binding shifts an interference pattern.)

B1: CC40.8 broadly neutralizing antibody (IgG) (antibody, V domains shown)
VH: EVQLLESGGGLVQPGGSLRLSCAASGFTFSSYVMTWARQAPGKGLEWVSAISGTGYTYYADSVKGRFTVSRDNSKNTLFLQMSSLRAEDTAVYYCAITMAPVVWGQGTTVTVSS
VL: SYELTQPPSVSVSPGQTARITCSGDALPKRYAYWYQQKSGQAPILVIYEDKKRPSGIPERLSGSKSGTVATLTISGAQVEDEADYYCYSTDSSGNHAVFGGGTQLTVL
notes: also called CC40.8 bnAb; CC40.8 mAb
Turning to B1, the binding result is reported as “binds”.
